Measured values reported in the nanobody polyreactivity screen of Harvey et al. (2022).

Test: yeast display, Sf9 membrane polyspecificity reagent, FACS + sequencing; frameworks hold sequencing errors
How it was run: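 Sorting gates, low and high (top ~1%), were placed on anti-HA fluorescence to track expression and on streptavidin fluorescence to track reagent binding. A clone's polyreactivity label is taken from the gate it came out of. The reagent was 10% biotinylated, detergent-solubilized Sf9 membrane, applied for 1 hour at 4 °C to galactose-induced yeast display cells.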

| Sequence | polyreactivity (PSR sort gate) |
| --- | --- |
| QVQLVESGGGLVQAGGSLRLSCAASGRTFLSYAMGWYRPAPGKERELVAAIRWRTGSRTYYADSVKGRFTISRDNAKNKVYLQLNSLKPEDTAVYLCANTYWYPYGYWGQGTQVTLSS | low polyreactivity |
| QVQLVESGGGLVQAGGSLRLSCAASGIIFSQYAMGWYRQAPGKERELVATITSRGASTYYADSVKGRFTISRDNAKNTVYLQMNSLKPEDTAVYYCAATVRRRYERYNYWGQGTQVTVSS | high polyreactivity |
| QVQLVESVGGLVQAGGSLRLSCAASGRTFAGNAMGWYRQAPGKEREFVASITASGVNTYYADSVKGRFTISRDNAKNTVYLQMNSLKPEDTAVYYCNKRNRWTPFYTYDYWGQGTQVTVSS | low polyreactivity |
| QVQLVESGGGLVQAGGSLRLSCAASGTIFNRYAMGWYRQAPGKERELVAAITRGGTTYYADSVKGRFTISRDNATNTVYLQMNSLKPEDTAVYYCAARLRYTTVIYYYWGQGTQVTVSS | high polyreactivity |
| QVQLVESGGGLVQAGGSLRLSCAASGRTLYFNAMGWYRQAPGKERALVADISIGGSTYSADSVKGRFTISRDNAKNTVYLQMNSLKPEDSAVYYCAANAHYYVSYAWSVDVDYWGQGTQVTVSS | high polyreactivity |
| QVQLVESGGGLVQAGGSQRLSCAASGRTFRGNAMGWYRQAPGKERELVATINSGGSTNYADSVKGRFTISRDKAKNTVYLQMNSLIPEDTAVYYCAAVKYFRWKYNYWGQGTQVTVSS | high polyreactivity |
| QVQLVESGGGLVQAGGSLRLSCAASGITFRYYAMGWYRQAPGKERELVAAISSGGGTYYADSVKGRFTISRDNAKNTVYLQMNSLKPEDTAVYYCNVLRLYPSMDYWGQGTQVTVSS | high polyreactivity |
| QDQLVESGGGLVQAGGSLRLSCAASGFTFYRYAMGWYRQAPGKERELVATIRNGGNTNYADSVKGRFTISRDNAKNTVYVQMNSLKPEDTAVYYCAKTVLAGMDWGQGTQVTVSS | high polyreactivity |
| QVQLVESGGGLVQAGGSLRLSCAASGSTFAWYAMGWYRQATGKETELVAVITRRGGSTYYADSVKGRFTISRDNAKNTVYLQMNSLKPEDTAVYYCAAEYQVSHWYRTASVYDYDSWGQGTQVTVSS | high polyreactivity |
| QVQLVESGGGLVQAGGPLRLSCAASGRIVWNAMGWYRQAPGKEREFVASITWSVGSTYYADSVKGRFTISRDNAKNTVYLQMNSLKPEDTAVYYCAADSYSGYYYWGQGTQVTVSS | high polyreactivity |
| QVQLVESGGGLVQAGGSLRLSCAASGSIFVQNAMGWYRQAPGTERELVAVINSGDSTNYADSVKGRFTISRDNAKNTVDLQMNSLKPEDTAVYYCAVDDVSYYYLRAYNYELSWYCSGLDYWGQGTQVTVSS | low polyreactivity |
| QVQLVESGGGLVQAVGSLRLSCAASGRTFAFYTMGWYRPAHGKERELVAAINWSGTRTYYADSVKGRVTISRDKAKNTVYLQMNSLKPEDTAVYYCNVAFFSLSLRTLGVEYWGQGTQVTVST | high polyreactivity |
| QVQLVESGGGLVQAGGSLRLSCAASGGTFVPYAMGWYRQAPGKERELVAAITIGGSTSYADSVKGRFTISRDNAKNTVYLQMNSLKPEDTAVYYCNARSYPDYIYWSQRYDYDYWGQGTQVTVSS | low polyreactivity |
| QVQIVESGAGLVQPGGSLRLSCAASGRTFPLYAMGWYRPAPGKEREFVAAITVSGVSTSYADSVKGRFTISRDNAKNTVYLQMNSLKPEDTAVYYCAADYYIWTYWDVYYWGQGTQVTVSS | high polyreactivity |
| QVQLVESGGGLVQAGGSLRLSCAASGITFWNNAKGWYRQAPGKEREFVATISSNGGRTYYADSVKGRFTISRDNAKNTVYLQMNSLKPEDNAVYYCNAARRAYGYNYWGQGTQVTVSS | low polyreactivity |
| QVQLVESGGGLVQSGGSLRLSCAASGFTFRFYAMGWYSQAPGKEREMVAAITSSGGSTFYADSVKGRFTISRDNAKNTVYLQMNSLKPEDTAVYYCAASVGREVGWGQGTQVTVSS | high polyreactivity |
| QVQLVESGGGLVQAGGSLRLSCAASGSIFYVYAMGWYRQAPGKERELVASINKYGGSTYYADSVKGRFTISRDNAKNTVYLQMNSLKPADTAVYYCAARTGWPRVGFQYPAHVGFDYWGQGTQVTVSS | low polyreactivity |
| QVQLVESGGGLVQAGGSLRLSCAASGSIFGVYAMGWYRQAPGQERELVAVITWSDGGTYYADSVKGRFTISRDNAKNTVYLQMNSLKPEDTAVYYCAKERYDYSYDYWGQGTQVTVSS | high polyreactivity |
| QVQLVESGGCLVQAGGSLRLSCAASGSTFKRYAMGWYRQAPGKVGELVAAISKSGGSTYYADSVKGRFTISRDNAKNTDYLQMNCLNAEDTAVYYCAAGRSIGALYYGMDYWGEGTQVTVSS | high polyreactivity |
| QVQLVESGGGLVQAGGSLRLSCAASGRIFGVYAMGWYRQAPGKDRELVAAITSSGGRTYYADSVKGRFTISRDNAKNTVYLQMNSLKPEDTGVYYCAALGWSRRGKFNYWGQGTQVTVSS | high polyreactivity |
| QVQLVESGGGLVQAGGSLRLSCAASGSIFYENAMGWYRQAPGKERELVAAISWNAGSTYYADSVKGRFTISRDNAKNTVYFQMNSLKPEDTAVYYCATTADGIRYDYWGQGTQVTVSS | low polyreactivity |
| QVQLVESGGGLVQAGGSLRLSCAASGRTFDGYMGWYRQAPGKERELVAAISYDTGSTYADSVKGRFTISRDNAKNTVYLQMNSLKPEDTAVYYCYGYPYQTLYGYWGQGTQVTVSS | low polyreactivity |

| Sequence | polyreactivity (PSR sort gate) |
| --- | --- |
| QVQLVESGGGLVQAGGSLRLSCAPSGRIFYGYAMGWYRQAPGKERELVAAITSGSRTNYADSVKGRFTISRDNAKNTVYLQMNSLKPEDTAVYYCHSLYGSYLYSLVHTSRYDYWGQGSQVTVSS | low polyreactivity |
| QVQLVESGGGLVQAGGSLRLSCAASGFTFYVNAMGWYRQAPGKERELVAAISSSGTRTYYADSVKGRFTISRDNAKNTVYLQMNSLKPEDTAVYYCAARGQAYSGDRMYYWGQGTLVTVSS | high polyreactivity |
| QVQLVESGGGLVQAGGSLRLSCAASGRIFQDYAMGWYRQPPGKERELVAAISSSGVRTYYADSVKGRFTISRDNAKNTVYVQMNSLKPEDTAVYYCATGYIFRYRQSAYVYWGQGTQVTVSS | high polyreactivity |
| QVQLVESGGGLVQAGGSLRLSCAASGRTFWYNAMGWYRQAPGKERELVAAISSSGGTTYYADSVKGRFTISRDNAKNTVYLQMNSLIPEDTAVYYCARQRRSVNVYKNIYKYWGQGTQVNVSS | high polyreactivity |
| PLQLVESGGGLVQAGGSLRLSGAASGIIFNQYPMGWYRQAPGKEREFVPAISSSGGSTYYADSVKGRFTISRDYAKNTVYLQMNSLKPADTAVYFCSADSPGWTYTSRSYDYWGQGTQVTLSS | low polyreactivity |
| EEELVESGGGLVQAGGSLRLSCAASGSIFVVNAMGWYRQAPGKERELVAAISRGGITNYADSVKGRFTISRDNAKNTVYLQMNSLKPEDTAVYYCNARGSRWVKPERDYWGQGTQVTVSS | low polyreactivity |
| QVQLVESGGGLVQEGGSLRLSCASSGYTFPYYAMGWYRQAPGKERELVAAIRSGGGTNYADSVKGRFTISRDNAKNTVYLQMNSLKPEDTADYYCAKEWAGGLYDYWGQGTQVTVSS | low polyreactivity |
| QVQLVESGGGLVQAGGSLRLSCAASGITFPGYAMGWYRQAPGKERELVAAISTSGGSTYYADSVKGRFTISRDNAKNTVYLQMNSLTPDDTAVYYCNARLVYYSYEEMDYWGQGTQVTVSS | low polyreactivity |
| QVQLVESGGGLFQAGGSLRLSCAPSGIFRYYVMGWYIQAPGKERELVAAISWGGGSTYYADSVKGRFTISRDNPKNTVYLQMNSLKPEDTAVYYCAARDLRKLYSRYPYYYWGQGTQVTVSS | high polyreactivity |
| QVQLVESGGGLVQAGGSLRLSCAASGFILYGNAMGWYRQAPGKERELVAAISRRGGSTYYADSVKGRFTISRDNAKNTVYLQMNSLKPEDTALYYCAKDGPGGGTRIYDYWGQGTQVTVSS | high polyreactivity |
| QVQLVESGGGLVQAGGRLRLSWAASGSTFFGNAMGWYRQAPGKERELVAVITKGGGSTYYADSVKGRFTISRDNAKNTVYLQMNSLKPEDTAVYYCAKTYTSGYHRRYDYWGQGTQVTVSS | low polyreactivity |
| QVQLVESGGGLVQAGGSLRLSCAASGRTFYLYGMGWYRQAPGKERELVAAITITDSTNYADSVKGRFTISRDNAKNTVYLQMNSLKPEDTAVYYCAKRRYYSTPRWGSSTYDYWGQGTQVTVSS | low polyreactivity |
| QVQLVESGGGLVQAGGSLRLSCAASGRTFGTYAMGWYRQAPGKERELVASITSGDSTNYADSVKGRFTISRDNAKNTVYLQMNSLKPEDTAVYYCNADIEFYVLFAYWGQGTQVTVSS | low polyreactivity |
| QVHLVESGGGLVQAGGSLRLSCAASGSIFWWYAMGWYRQAPGKERELVAAIRWSGTTAFYADSVKGRFTISRDYAKNTVYLQMNSLKPEDTAVYYCNAEGGIWGGTTGYDYWGQGTQVTVSS | low polyreactivity |
| QVQLVESGGGLVQAGGSLRISCAASGRTFWKYVRGWYRQAPGKERELVAVISRPAGSTYYADSVKGRFTISRDNAKNTVYLQMNSLKPEDTAVYYCAKRPKNKPVLGDYDHWGQGTQVTVSS | low polyreactivity |
| QLQLVESGGGLVQAGCSLRLSCADSGRNYTMGRYRQAPGKERELVDASSKSGGSTSYADSVKGRFTISRDNAKNTVYLQLNSLKPEDTAVYYCATALRGSQAYSVRAMNYWGQATQVTVSS | high polyreactivity |
| QVQLVESGGGLVQAGGSLRLSCAASGSIFQYNTMGWYRQAPGKERELVAAINWSGVSTYYADSVKGRFTISRDNAKNTVYLQMNILKPEDTAVYYCNARRYVDGSYIYDRGYWGQGTQVTVSS | high polyreactivity |
| QVQLVESGGGLVQAGGSLRLSCAASGSTFGSNAMGWYRQAPGKERELVAAITGGDVSTYYADSVKGRFTISRDNAKNTVYLQMNSLKPEDTAVYYCNAEYARPAMDYWGQGTQVTVSS | low polyreactivity |
| QVQLVESGGGLVQAGGSLRLSCAASGFTFDRNAMGWYRQAPGKERGFVAAISSSGGRTYYADSVKGRFTISRDNAKITVYLEMNSLKQEDTALYYCAADFVSRPSAYGSSYYWGQGTQVTVSS | high polyreactivity |
| QVQLVESGAGLGQAGVSLRLSCAASGSTFPTYAMGWYRPAPGKERELVAAIDWSDGTTYYADSVKGRFTISRDNANNTVYLQMNSLKPDETAGYYCAASLSLSEYDYWGQATQVTVSS | low polyreactivity |
| QVQLVESGGGLVQAGGSLRLSCAASGRTFTVYAMGWYRQAPGKERELVAAIIYSGGRTYYADSVKGRFTISRDNAKNTVYLQMNSLKPEDTAVYYCAAYVYQSCPRFSRYGGYDYWGQGTQVTVSS | low polyreactivity |
